Changes are numbered by the printed parent chain.
Key:
Assay in all cases: holdup assay
Design in all cases: key: below the threshold = too weak to quantify, mostly under pKd 3.1 to 4
DLG1_1, Q12959 = target: DLG1_1, Q12959
RADIL, Q96JH8 = target: T1, RADIL, Q96JH8
T1 sequence (Q96JH8 971-1071, limits assumed, looked up): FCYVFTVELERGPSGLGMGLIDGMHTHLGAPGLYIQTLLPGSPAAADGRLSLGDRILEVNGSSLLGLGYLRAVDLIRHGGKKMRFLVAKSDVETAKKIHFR

Inadl_2, Q8NI35 = target: Inadl_2, Q8NI35
DLG3_1, Q92796 = target: T2, DLG3_1, Q92796
T2 sequence (Q92796 125-227, limits assumed, looked up): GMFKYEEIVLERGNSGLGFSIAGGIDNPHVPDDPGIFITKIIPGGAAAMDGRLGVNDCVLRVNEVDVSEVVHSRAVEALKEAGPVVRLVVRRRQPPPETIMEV

SHANK1, Q9Y566 = target: T3, SHANK1, Q9Y566
T3 sequence (Q9Y566 658-767, limits assumed, looked up): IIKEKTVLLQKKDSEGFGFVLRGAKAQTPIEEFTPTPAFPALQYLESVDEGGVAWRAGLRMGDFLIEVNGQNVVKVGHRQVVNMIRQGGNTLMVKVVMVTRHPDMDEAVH

TJP3_3, O95049 = target: T4, TJP3_3, O95049
T4 sequence (O95049 375-456, limits assumed, looked up): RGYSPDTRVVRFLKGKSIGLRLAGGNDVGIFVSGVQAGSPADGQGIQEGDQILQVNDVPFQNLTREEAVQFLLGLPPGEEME

PTPN3, P26045 = target: PTPN3, P26045
PTPN3, P26045, sequence (P26045 505-587): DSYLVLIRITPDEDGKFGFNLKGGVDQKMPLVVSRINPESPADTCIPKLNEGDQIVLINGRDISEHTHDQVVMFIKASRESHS

Inadl_1, Q8NI35 = target: Inadl_1, Q8NI35
Inadl_1, Q8NI35, sequence (Q8NI35 113-229): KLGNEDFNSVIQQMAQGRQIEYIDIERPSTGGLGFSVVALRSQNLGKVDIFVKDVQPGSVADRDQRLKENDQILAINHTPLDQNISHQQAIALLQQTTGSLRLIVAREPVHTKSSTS

PARD3_3, Q8TEW0 = target: PARD3_3, Q8TEW0
PARD3_3, Q8TEW0, sequence (Q8TEW0 582-685): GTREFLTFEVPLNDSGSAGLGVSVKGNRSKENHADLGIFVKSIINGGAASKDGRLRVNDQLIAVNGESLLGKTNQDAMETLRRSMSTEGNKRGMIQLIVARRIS

LIN7C, Q9NUP9 = target: T5, LIN7C, Q9NUP9
T5 sequence (Q9NUP9 88-185, limits assumed, looked up): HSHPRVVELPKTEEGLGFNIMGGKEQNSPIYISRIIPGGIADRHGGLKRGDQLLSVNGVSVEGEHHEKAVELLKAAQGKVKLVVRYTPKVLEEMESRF

MAGI1_1, Q96QZ7 = target: MAGI1_1, Q96QZ7
MAGI1_1, Q96QZ7, sequence (Q96QZ7 1-106): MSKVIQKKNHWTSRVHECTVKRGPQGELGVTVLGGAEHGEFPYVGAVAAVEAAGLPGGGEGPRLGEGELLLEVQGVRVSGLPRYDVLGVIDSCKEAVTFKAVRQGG

AHNAK1, Q09666 = target: AHNAK1, Q09666
AHNAK1, Q09666, sequence (Q09666 4-100): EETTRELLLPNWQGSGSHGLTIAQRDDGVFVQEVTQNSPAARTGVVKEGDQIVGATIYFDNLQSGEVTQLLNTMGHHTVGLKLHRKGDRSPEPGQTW

GRIP1_5, Q9Y3R0 = target: T6, GRIP1_5, Q9Y3R0
T6 sequence (Q9Y3R0 568-668, limits assumed, looked up): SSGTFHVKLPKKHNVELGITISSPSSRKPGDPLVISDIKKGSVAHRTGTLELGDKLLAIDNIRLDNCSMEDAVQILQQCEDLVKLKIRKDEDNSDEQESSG

SYNJ2BP, P57105 = target: T7, SYNJ2BP, P57105
T7 sequence (P57105 8-110, limits assumed, looked up): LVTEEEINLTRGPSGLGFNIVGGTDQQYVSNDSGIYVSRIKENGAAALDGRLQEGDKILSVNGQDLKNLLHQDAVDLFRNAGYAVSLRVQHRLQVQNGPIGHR

DLG4_2, P78352 = target: DLG4_2, P78352
DLG4_2, P78352, sequence (P78352 155-259): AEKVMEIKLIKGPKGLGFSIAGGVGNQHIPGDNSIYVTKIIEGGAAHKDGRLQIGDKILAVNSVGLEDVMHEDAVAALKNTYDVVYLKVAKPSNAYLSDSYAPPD

LIN7A, O14910 = target: T8, LIN7A, O14910
T8 sequence (O14910 103-200, limits assumed, looked up): T5 sequence (Q9NUP9 88-185, limits assumed, looked up) with E13D, I20V, I40V, D42E, Q77K, G78D, K79S, S96A

Inadl_9, Q8NI35 = target: Inadl_9, Q8NI35
Inadl_9, Q8NI35, sequence (Q8NI35 1530-1615): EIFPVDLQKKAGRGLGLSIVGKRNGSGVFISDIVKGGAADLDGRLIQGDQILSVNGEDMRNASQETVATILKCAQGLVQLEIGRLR

NHERF2_2, Q15599 = target: NHERF2_2, Q15599
NHERF2_2, Q15599, sequence (Q15599 142-238): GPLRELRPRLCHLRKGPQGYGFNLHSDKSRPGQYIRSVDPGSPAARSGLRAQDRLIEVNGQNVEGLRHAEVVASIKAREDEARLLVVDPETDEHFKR

MAST1, Q9Y2H9 = target: MAST1, Q9Y2H9
MAST1, Q9Y2H9, sequence (Q9Y2H9 962-1065): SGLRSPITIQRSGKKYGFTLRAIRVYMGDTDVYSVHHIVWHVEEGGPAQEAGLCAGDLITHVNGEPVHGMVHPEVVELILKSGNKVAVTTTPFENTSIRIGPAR

GRIP2_3, Q9C0E4 = target: GRIP2_3, Q9C0E4
GRIP2_3, Q9C0E4, sequence (Q9C0E4 238-339): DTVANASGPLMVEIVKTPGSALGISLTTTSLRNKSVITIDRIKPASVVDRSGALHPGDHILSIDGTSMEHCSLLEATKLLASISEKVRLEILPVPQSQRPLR

MAGI2_5, Q86UL8 = target: MAGI2_5, Q86UL8
MAGI2_5, Q86UL8, sequence (Q86UL8 915-1017): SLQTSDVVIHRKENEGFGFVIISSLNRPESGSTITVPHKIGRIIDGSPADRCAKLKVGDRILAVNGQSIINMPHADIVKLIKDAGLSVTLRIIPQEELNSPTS

MAGI1_2, Q96QZ7 = target: MAGI1_2, Q96QZ7
MAGI1_2, Q96QZ7, sequence (Q96QZ7 456-580): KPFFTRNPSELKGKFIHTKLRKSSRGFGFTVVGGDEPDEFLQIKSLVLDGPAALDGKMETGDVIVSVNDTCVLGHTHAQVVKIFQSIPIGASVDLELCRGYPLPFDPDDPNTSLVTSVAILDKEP

DLG2_2, Q15700 = target: DLG2_2, Q15700
DLG2_2, Q15700, sequence (Q15700 189-283): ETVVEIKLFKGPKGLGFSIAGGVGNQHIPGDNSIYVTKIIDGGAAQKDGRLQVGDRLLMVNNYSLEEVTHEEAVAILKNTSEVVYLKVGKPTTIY

HTRA2, O43464 = target: HTRA2, O43464
HTRA2, O43464, sequence (O43464 355-458): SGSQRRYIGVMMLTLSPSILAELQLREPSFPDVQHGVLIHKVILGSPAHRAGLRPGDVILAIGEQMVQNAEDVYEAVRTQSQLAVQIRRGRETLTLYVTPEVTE

PARD3B_1, Q8TEW8 = target: T9, PARD3B_1, Q8TEW8
T9 sequence (Q8TEW8 196-299, limits assumed, looked up): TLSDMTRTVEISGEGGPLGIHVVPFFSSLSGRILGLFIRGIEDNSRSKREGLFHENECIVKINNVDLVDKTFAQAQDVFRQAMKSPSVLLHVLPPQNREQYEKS

GORASP1, Q9BQQ3 = target: GORASP1, Q9BQQ3
GORASP1, Q9BQQ3, sequence (Q9BQQ3 1-208): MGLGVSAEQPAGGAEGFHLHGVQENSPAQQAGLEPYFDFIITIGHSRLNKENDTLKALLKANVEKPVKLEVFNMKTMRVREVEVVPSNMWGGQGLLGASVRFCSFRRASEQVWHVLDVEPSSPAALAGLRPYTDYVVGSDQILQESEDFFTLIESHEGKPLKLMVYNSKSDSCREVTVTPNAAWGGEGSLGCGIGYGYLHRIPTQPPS

APBA1_2, Q02410 = target: T10, APBA1_2, Q02410
T10 sequence (Q02410 742-832, limits assumed, looked up): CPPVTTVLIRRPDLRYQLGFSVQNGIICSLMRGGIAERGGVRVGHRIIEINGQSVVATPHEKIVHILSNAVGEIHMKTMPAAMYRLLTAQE

[1] = plain residues with an end cap or a label only (N-terminal biotin on a linker: ado-ado)
[2] = modified: phospho on T at position -2 from the C-terminal residue

Measured: pKd

Inadl_2, Q8NI35, sequence (Q8NI35 238-335): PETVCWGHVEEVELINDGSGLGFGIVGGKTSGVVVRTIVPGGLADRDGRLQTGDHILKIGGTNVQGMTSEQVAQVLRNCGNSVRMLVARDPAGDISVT

AQRARSPSDV [GPR12, P47775]
3.49: DLG2_2, Q15700; [1]
4.14: SYNJ2BP, P57105; [1] | APBA1_2, Q02410; [1]
3.92: DLG4_2, P78352; [1]
below the threshold: DLG1_1, Q12959; [1] | RADIL, Q96JH8; [1] | Inadl_2, Q8NI35; [1] | DLG3_1, Q92796; [1] | SHANK1, Q9Y566; [1] | TJP3_3, O95049; [1] | Inadl_1, Q8NI35; [1] | PARD3_3, Q8TEW0; [1] | LIN7C, Q9NUP9; [1] | AHNAK1, Q09666; [1] | GRIP1_5, Q9Y3R0; [1] | LIN7A, O14910; [1] | Inadl_9, Q8NI35; [1] | NHERF2_2, Q15599; [1] | MAST1, Q9Y2H9; [1] | GRIP2_3, Q9C0E4; [1] | MAGI2_5, Q86UL8; [1] | MAGI1_2, Q96QZ7; [1] | HTRA2, O43464; [1] | PARD3B_1, Q8TEW8; [1] | GORASP1, Q9BQQ3; [1]
3.67: MAGI1_1, Q96QZ7; [1]
3.98: PTPN3, P26045; [1]

SSRTRRETQL [HPV16-E6_-2P, P03126]
below the threshold: DLG1_1, Q12959; [2] | RADIL, Q96JH8; [2] | Inadl_2, Q8NI35; [2] | DLG3_1, Q92796; [2] | SHANK1, Q9Y566; [2] | TJP3_3, O95049; [2] | Inadl_1, Q8NI35; [2] | PARD3_3, Q8TEW0; [2] | MAGI1_1, Q96QZ7; [2] | AHNAK1, Q09666; [2] | GRIP1_5, Q9Y3R0; [2] | SYNJ2BP, P57105; [2] | DLG4_2, P78352; [2] | LIN7A, O14910; [2] | Inadl_9, Q8NI35; [2] | NHERF2_2, Q15599; [2] | MAST1, Q9Y2H9; [2] | GRIP2_3, Q9C0E4; [2] | MAGI2_5, Q86UL8; [2] | MAGI1_2, Q96QZ7; [2] | DLG2_2, Q15700; [2] | HTRA2, O43464; [2] | PARD3B_1, Q8TEW8; [2] | GORASP1, Q9BQQ3; [2] | APBA1_2, Q02410; [2]
3.94: LIN7C, Q9NUP9; [2]
3.92: PTPN3, P26045; [2]

EDGESWEYQI [TRPV6, Q9H1D0]
below the threshold: DLG1_1, Q12959; [1] | DLG3_1, Q92796; [1] | SHANK1, Q9Y566; [1] | TJP3_3, O95049; [1] | MAGI1_1, Q96QZ7; [1] | AHNAK1, Q09666; [1] | GRIP1_5, Q9Y3R0; [1] | SYNJ2BP, P57105; [1] | DLG4_2, P78352; [1] | LIN7A, O14910; [1] | GRIP2_3, Q9C0E4; [1] | MAGI2_5, Q86UL8; [1] | MAGI1_2, Q96QZ7; [1] | DLG2_2, Q15700; [1] | HTRA2, O43464; [1] | APBA1_2, Q02410; [1]
3.83: Inadl_9, Q8NI35; [1]
4.63: GORASP1, Q9BQQ3; [1]
3.67: NHERF2_2, Q15599; [1]
4.41: Inadl_1, Q8NI35; [1]
3.97: Inadl_2, Q8NI35; [1]
3.85: PARD3B_1, Q8TEW8; [1]
5.35: PARD3_3, Q8TEW0; [1]
4.13: PTPN3, P26045; [1]
3.69: RADIL, Q96JH8; [1]
3.72: LIN7C, Q9NUP9; [1]
4.28: MAST1, Q9Y2H9; [1]

QSGLYESEEL [MYOT, Q9UBF9]
3.59: PARD3_3, Q8TEW0; [1] | SYNJ2BP, P57105; [1]
4.04: NHERF2_2, Q15599; [1]
4.21: PTPN3, P26045; [1]
3.72: SHANK1, Q9Y566; [1]
3.53: DLG4_2, P78352; [1]
3.86: PARD3B_1, Q8TEW8; [1]
below the threshold: DLG1_1, Q12959; [1] | RADIL, Q96JH8; [1] | Inadl_2, Q8NI35; [1] | DLG3_1, Q92796; [1] | TJP3_3, O95049; [1] | Inadl_1, Q8NI35; [1] | MAGI1_1, Q96QZ7; [1] | AHNAK1, Q09666; [1] | GRIP1_5, Q9Y3R0; [1] | LIN7A, O14910; [1] | Inadl_9, Q8NI35; [1] | MAST1, Q9Y2H9; [1] | GRIP2_3, Q9C0E4; [1] | MAGI1_2, Q96QZ7; [1] | DLG2_2, Q15700; [1] | HTRA2, O43464; [1] | GORASP1, Q9BQQ3; [1] | APBA1_2, Q02410; [1]
3.58: LIN7C, Q9NUP9; [1]
4.02: MAGI2_5, Q86UL8; [1]

PYSESDDDWC [CACNA1A, O00555]
below the threshold: DLG1_1, Q12959; [1] | RADIL, Q96JH8; [1] | Inadl_2, Q8NI35; [1] | DLG3_1, Q92796; [1] | SHANK1, Q9Y566; [1] | Inadl_1, Q8NI35; [1] | LIN7C, Q9NUP9; [1] | MAGI1_1, Q96QZ7; [1] | AHNAK1, Q09666; [1] | GRIP1_5, Q9Y3R0; [1] | DLG4_2, P78352; [1] | LIN7A, O14910; [1] | Inadl_9, Q8NI35; [1] | MAST1, Q9Y2H9; [1] | GRIP2_3, Q9C0E4; [1] | MAGI2_5, Q86UL8; [1] | MAGI1_2, Q96QZ7; [1] | DLG2_2, Q15700; [1] | HTRA2, O43464; [1] | GORASP1, Q9BQQ3; [1] | APBA1_2, Q02410; [1]
4.15: PTPN3, P26045; [1]
4.39: TJP3_3, O95049; [1]
3.6: SYNJ2BP, P57105; [1]
3.89: PARD3_3, Q8TEW0; [1]
3.61: PARD3B_1, Q8TEW8; [1]
3.74: NHERF2_2, Q15599; [1]
